In publication PMC8734478 (Science (New York, N.Y.), 2021):
Ends that are not written are not given here. * marks the point of attachment. Palmitoyl = CCCCCCCCCCCCCCCC(=O)*

Molecular target: human Hedgehog acyltransferase (HHAT) (human, UniProt Q5VTY9 1-493)
Experiment: cryo-EM structure

human Hedgehog acyltransferase (HHAT), sequence (Q5VTY9 whole entry): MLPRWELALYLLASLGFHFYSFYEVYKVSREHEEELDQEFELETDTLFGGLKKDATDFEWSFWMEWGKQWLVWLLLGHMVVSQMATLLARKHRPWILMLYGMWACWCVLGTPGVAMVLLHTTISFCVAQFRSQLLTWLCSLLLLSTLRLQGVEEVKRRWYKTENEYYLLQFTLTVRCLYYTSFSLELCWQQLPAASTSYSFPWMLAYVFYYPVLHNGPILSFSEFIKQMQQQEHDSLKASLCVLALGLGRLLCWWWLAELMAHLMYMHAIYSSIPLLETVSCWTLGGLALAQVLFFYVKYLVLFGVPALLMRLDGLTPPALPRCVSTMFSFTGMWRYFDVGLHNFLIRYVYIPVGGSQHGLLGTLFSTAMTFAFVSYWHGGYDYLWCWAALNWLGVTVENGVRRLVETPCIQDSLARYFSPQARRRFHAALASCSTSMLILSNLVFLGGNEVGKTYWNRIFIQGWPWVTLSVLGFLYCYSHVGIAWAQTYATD

binding result: binds
Binder: Palmitoyl-CGPGRGFGKRRH (peptide, UniProt Q15465 24-35, looked up)
